The values that follow are results of earlier work, collected in article PMC10967246.

Read-outs that look alike come from different tables or passages of the source.

Data set [1] deals with GluTR (Arabidopsis thaliana) (UniProt P42804). The experiment in a line: MST.
For data set [2] the target is unchanged.

Sequence of GluTR (Arabidopsis thaliana) (P42804 62-543): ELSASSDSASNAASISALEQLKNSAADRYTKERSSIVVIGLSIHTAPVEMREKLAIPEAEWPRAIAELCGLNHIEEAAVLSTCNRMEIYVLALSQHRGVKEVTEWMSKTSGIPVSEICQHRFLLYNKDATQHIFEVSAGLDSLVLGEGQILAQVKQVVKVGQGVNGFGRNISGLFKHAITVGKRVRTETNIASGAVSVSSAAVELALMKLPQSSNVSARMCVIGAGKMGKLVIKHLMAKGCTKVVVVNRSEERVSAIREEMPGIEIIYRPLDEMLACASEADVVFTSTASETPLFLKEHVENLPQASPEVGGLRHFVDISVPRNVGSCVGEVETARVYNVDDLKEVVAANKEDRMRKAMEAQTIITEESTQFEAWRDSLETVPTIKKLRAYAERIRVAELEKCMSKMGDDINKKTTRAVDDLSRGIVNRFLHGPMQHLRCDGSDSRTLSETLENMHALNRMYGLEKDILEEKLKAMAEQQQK
Sequence of GBP (Q9LU39 43-317): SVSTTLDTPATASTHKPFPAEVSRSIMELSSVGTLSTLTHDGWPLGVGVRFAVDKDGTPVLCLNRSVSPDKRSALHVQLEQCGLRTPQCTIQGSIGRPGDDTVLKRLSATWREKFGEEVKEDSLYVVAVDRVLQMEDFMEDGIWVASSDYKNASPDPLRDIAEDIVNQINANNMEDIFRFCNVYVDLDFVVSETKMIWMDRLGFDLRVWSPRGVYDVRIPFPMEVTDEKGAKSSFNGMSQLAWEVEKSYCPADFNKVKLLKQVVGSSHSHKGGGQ
Sequence of FLU TPR domain (Q940U6 203-316): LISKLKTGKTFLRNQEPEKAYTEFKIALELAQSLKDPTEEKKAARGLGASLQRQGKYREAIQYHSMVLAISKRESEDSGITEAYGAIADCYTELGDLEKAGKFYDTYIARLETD

As usually defined, the Kd is the equilibrium constant for the complex coming apart. In the case of GBP (from UniProt Q9LU39), the Kd in data set [1] is 0.042 µM.
With FLU TPR domain (from UniProt Q940U6), the Kd in data set [2] was 0.475 µM.
